Values belong to the substance of their own block, whether it stands above or below them.
Key:
[1] = target: A296C (single-Cys mutant of FT-HT-Xa) (S. cerevisiae) (UniProt D6VTK4); experiment: cross-linking
[2] = target: A296C (single-Cys mutant of FT-HT-Xa) (S. cerevisiae) (UniProt D6VTK4); experiment: cross-linking; remark: listed apart in the source
[3] = target: A296C (single-Cys mutant of FT-HT-Xa) (S. cerevisiae) (UniProt D6VTK4); experiment: SDS-PAGE and western blot of membranes
[4] = target: A296C (single-Cys mutant of FT-HT-Xa) (S. cerevisiae) (UniProt D6VTK4); experiment: cross-linking; remark: listed apart in the source
[5] = target: L64C (single-Cys mutant of FT-HT-Xa) (S. cerevisiae) (UniProt D6VTK4); experiment: cross-linking
[6] = target: L64C (single-Cys mutant of FT-HT-Xa) (S. cerevisiae) (UniProt D6VTK4); experiment: cross-linking; remark: listed apart in the source
[7] = target: L64C (single-Cys mutant of FT-HT-Xa) (S. cerevisiae) (UniProt D6VTK4); experiment: SDS-PAGE and western blot of membranes
[8] = target: L64C (single-Cys mutant of FT-HT-Xa) (S. cerevisiae) (UniProt D6VTK4); experiment: cross-linking; remark: listed apart in the source
[9] = target: L291C (single-Cys mutant of FT-HT-Xa) (S. cerevisiae) (UniProt D6VTK4); experiment: cross-linking
[10] = target: L291C (single-Cys mutant of FT-HT-Xa) (S. cerevisiae) (UniProt D6VTK4); experiment: cross-linking; remark: listed apart in the source
[11] = target: L291C (single-Cys mutant of FT-HT-Xa) (S. cerevisiae) (UniProt D6VTK4); experiment: SDS-PAGE and western blot of membranes
[12] = target: L291C (single-Cys mutant of FT-HT-Xa) (S. cerevisiae) (UniProt D6VTK4); experiment: cross-linking; remark: listed apart in the source
[13] = target: M294C (single-Cys mutant of FT-HT-Xa) (S. cerevisiae) (UniProt D6VTK4); experiment: cross-linking
[14] = target: M294C (single-Cys mutant of FT-HT-Xa) (S. cerevisiae) (UniProt D6VTK4); experiment: cross-linking; remark: listed apart in the source
[15] = target: M294C (single-Cys mutant of FT-HT-Xa) (S. cerevisiae) (UniProt D6VTK4); experiment: SDS-PAGE and western blot of membranes
[16] = target: M294C (single-Cys mutant of FT-HT-Xa) (S. cerevisiae) (UniProt D6VTK4); experiment: cross-linking; remark: listed apart in the source
[17] = target: S292C (single-Cys mutant of FT-HT-Xa) (S. cerevisiae) (UniProt D6VTK4); experiment: cross-linking
[18] = target: S292C (single-Cys mutant of FT-HT-Xa) (S. cerevisiae) (UniProt D6VTK4); experiment: cross-linking; remark: listed apart in the source
[19] = target: S292C (single-Cys mutant of FT-HT-Xa) (S. cerevisiae) (UniProt D6VTK4); experiment: SDS-PAGE and western blot of membranes
[20] = target: S292C (single-Cys mutant of FT-HT-Xa) (S. cerevisiae) (UniProt D6VTK4); experiment: cross-linking; remark: listed apart in the source
[21] = target: S293C (single-Cys mutant of FT-HT-Xa) (S. cerevisiae) (UniProt D6VTK4); experiment: cross-linking
[22] = target: S293C (single-Cys mutant of FT-HT-Xa) (S. cerevisiae) (UniProt D6VTK4); experiment: cross-linking; remark: listed apart in the source
[23] = target: S293C (single-Cys mutant of FT-HT-Xa) (S. cerevisiae) (UniProt D6VTK4); experiment: SDS-PAGE and western blot of membranes
[24] = target: S293C (single-Cys mutant of FT-HT-Xa) (S. cerevisiae) (UniProt D6VTK4); experiment: cross-linking; remark: listed apart in the source
[25] = target: T65C (single-Cys mutant of FT-HT-Xa) (S. cerevisiae) (UniProt D6VTK4); experiment: cross-linking
[26] = target: T65C (single-Cys mutant of FT-HT-Xa) (S. cerevisiae) (UniProt D6VTK4); experiment: cross-linking; remark: listed apart in the source
[27] = target: T65C (single-Cys mutant of FT-HT-Xa) (S. cerevisiae) (UniProt D6VTK4); experiment: SDS-PAGE and western blot of membranes
[28] = target: T65C (single-Cys mutant of FT-HT-Xa) (S. cerevisiae) (UniProt D6VTK4); experiment: cross-linking; remark: listed apart in the source
[29] = target: W295C (single-Cys mutant of FT-HT-Xa) (S. cerevisiae) (UniProt D6VTK4); experiment: cross-linking
[30] = target: W295C (single-Cys mutant of FT-HT-Xa) (S. cerevisiae) (UniProt D6VTK4); experiment: cross-linking; remark: listed apart in the source
[31] = target: W295C (single-Cys mutant of FT-HT-Xa) (S. cerevisiae) (UniProt D6VTK4); experiment: SDS-PAGE and western blot of membranes
[32] = target: W295C (single-Cys mutant of FT-HT-Xa) (S. cerevisiae) (UniProt D6VTK4); experiment: cross-linking; remark: listed apart in the source

Substance: A296C (single-Cys mutant of FT-HT-Xa) (from UniProt D6VTK4 1-431) (receptor)
percent dimer [1]: 73.6%
percent dimer [2]: 82.1%
percent dimer [3]: 14.8%
percent dimer [4]: 91.1%

Substance: L64C (single-Cys mutant of FT-HT-Xa) (from UniProt D6VTK4 1-431) (receptor)
percent dimer [5]: 14.6%
percent dimer [6]: 13.6%
percent dimer [7]: 15.8%
percent dimer [8]: 11.3%

Substance: L291C (single-Cys mutant of FT-HT-Xa) (from UniProt D6VTK4 1-431) (receptor)
percent dimer [9]: 52%
percent dimer [10]: 44.5%
percent dimer [11]: 31.8%
percent dimer [12]: 66.4%

Substance: M294C (single-Cys mutant of FT-HT-Xa) (from UniProt D6VTK4 1-431) (receptor)
percent dimer [13]: 57.8%
percent dimer [14]: 50.8%
percent dimer [15]: 27%
percent dimer [16]: 75.6%

Substance: S292C (single-Cys mutant of FT-HT-Xa) (from UniProt D6VTK4 1-431) (receptor)
percent dimer [17]: 75.5%
percent dimer [18]: 65.9%
percent dimer [19]: 30.2%
percent dimer [20]: 82.3%

Substance: S293C (single-Cys mutant of FT-HT-Xa) (from UniProt D6VTK4 1-431) (receptor)
percent dimer [21]: 38.5%
percent dimer [22]: 44%
percent dimer [23]: 21.1%
percent dimer [24]: 70.2%

Continued, values first:

percent dimer [25]: 15.9%
percent dimer [26]: 12.8%
percent dimer [27]: 16.2%
percent dimer [28]: 14.4%
Substance: T65C (single-Cys mutant of FT-HT-Xa) (from UniProt D6VTK4 1-431) (receptor)

percent dimer [29]: 76.2%
percent dimer [30]: 86.3%
percent dimer [31]: 15.7%
percent dimer [32]: 95.2%
Substance: W295C (single-Cys mutant of FT-HT-Xa) (from UniProt D6VTK4 1-431) (receptor)

From PMC2783235
